Square brackets hold non-standard residues; d marks the D form. Ends that are not written are not given here. Cit = NC(=O)NCCC[C@H](N)C(=O)O
How the values were obtained:
[1] = target: MHC class II of the HLA DRB1 0401 genotype (Homo sapiens, UniProt P01903+P01911, A100K/A169T/F76Y/I96L/K127E/L162R/M171V/N62H/P40V/Q125Y/R42H/S133A/S149N/S66Y/V115G/V209L/W38E); test: in vitro binding assay to recombinant MHC class II protein; design: key to Binds to 0401: *0101: the listing of the allele in the column for the allele indicates binding; *0401: “0401” in the “Binds to 0401” column indicates binding of the peptide to MHC class II of the HLA DRB1 0401 genotype; *0404: the listing of the allele in the column for the allele indicates binding; *0405: the listing of the allele in the column for the allele indicates binding; *0408: the listing of the allele in the column for the allele indicates binding; *1001: the listing of the allele in the column for the allele indicates binding; “no” or no data indicates no binding to a protein of that genotype; conditions: for Binds to 0401: recombinant MHC class II, HLA DRB1 0401
Excerpt: (§1) Binding of the peptides to recombinant MHC class II protein of various alleles has been confirmed in an in vitro binding assay and the results are shown in Tables 1, 2 and 3. In table 1, 2 and 3, the listing of the allele in the column for the allele indicates binding. Thus “0401” in the “Binds to 0401” column indicates binding of the peptide to MHC class II of the HLA DRB1 0401 genotype. “no” or no data indicates no binding to a protein of that genotype. Empty boxes indicate no binding or that binding has not been determined. In the tables it is also indicated if the peptide has a citrulline residue, where “yes” indicates the presence of a citrulline residue and “no” indicates the absence of a citrulline residue.
Thus for these peptides no binding to HLA-DR0401 was observed when citrulline was exchanged with the original amino acid arginine (Table 4). No binding of the citrullinated peptides was seen to HLA-DR 03 or 02 variants.

[2] = target: MHC class II of the HLA DRB1 0101 genotype (Homo sapiens, UniProt P01903+P01911, A100R/D57E/F55L/F60I/F76Y/I96L/L162R/M171V/P40L/Q125E/R42F/V115G/Y59C); test: as above; design: key: *0101: the listing of the allele in the column for the allele indicates binding; *0401: “0401” in the “Binds to 0401” column indicates binding of the peptide to MHC class II of the HLA DRB1 0401 genotype; *0404: the listing of the allele in the column for the allele indicates binding; *0405: the listing of the allele in the column for the allele indicates binding; *0408: the listing of the allele in the column for the allele indicates binding; *1001: the listing of the allele in the column for the allele indicates binding; “no” or no data indicates no binding to a protein of that genotype
Excerpt: as §1

[3] = target: MHC class II of the HLA DRB1 0405 genotype (Homo sapiens, UniProt P01903+P01911, A100R/A169T/D86S/F76Y/I96L/K127E/L162R/M171V/N62H/P40V/Q125Y/R42H/S133A/S149N/S66Y/V115G/V209L/W38E); test: as above; design: key: *0101: the listing of the allele in the column for the allele indicates binding; *0401: “0401” in the “Binds to 0401” column indicates binding of the peptide to MHC class II of the HLA DRB1 0401 genotype; *0404: the listing of the allele in the column for the allele indicates binding; *0405: the listing of the allele in the column for the allele indicates binding; *0408: the listing of the allele in the column for the allele indicates binding; *1001: the listing of the allele in the column for the allele indicates binding; “no” or no data indicates no binding to a protein of that genotype
Excerpt: as §1

[4] = target: MHC class II of the HLA DRB1 0404 genotype (Homo sapiens, UniProt P01903+P01911, A100R/A169T/F76Y/I96L/K127E/L162R/M171V/N62H/P40V/Q125Y/R42H/S133A/S149N/S66Y/V209L/W38E); test: as above; design: key: *0101: the listing of the allele in the column for the allele indicates binding; *0401: “0401” in the “Binds to 0401” column indicates binding of the peptide to MHC class II of the HLA DRB1 0401 genotype; *0404: the listing of the allele in the column for the allele indicates binding; *0405: the listing of the allele in the column for the allele indicates binding; *0408: the listing of the allele in the column for the allele indicates binding; *1001: the listing of the allele in the column for the allele indicates binding; “no” or no data indicates no binding to a protein of that genotype
Excerpt: as §1

[5] = tested on: MHC class II of the HLA DRB1 0408 genotype; test: as above; design: species or system human; key: *0101: the listing of the allele in the column for the allele indicates binding; *0401: “0401” in the “Binds to 0401” column indicates binding of the peptide to MHC class II of the HLA DRB1 0401 genotype; *0404: the listing of the allele in the column for the allele indicates binding; *0405: the listing of the allele in the column for the allele indicates binding; *0408: the listing of the allele in the column for the allele indicates binding; *1001: the listing of the allele in the column for the allele indicates binding; “no” or no data indicates no binding to a protein of that genotype
Excerpt: as §1

[6] = tested on: MHC class II of the HLA DRB1 1001 genotype; test: as above; design: species or system human; key to Binds to 1001: *0101: the listing of the allele in the column for the allele indicates binding; *0401: “0401” in the “Binds to 0401” column indicates binding of the peptide to MHC class II of the HLA DRB1 0401 genotype; *0404: the listing of the allele in the column for the allele indicates binding; *0405: the listing of the allele in the column for the allele indicates binding; *0408: the listing of the allele in the column for the allele indicates binding; *1001: the listing of the allele in the column for the allele indicates binding; “no” or no data indicates no binding to a protein of that genotype; conditions: recombinant MHC class II, HLA DRB1 1001
Excerpt: as §1

[7] = tested on: PBMCs (CD4+ T cells) from rheumatoid arthritis patients with HLA genotype HLA DRB1-0401; test: T-cell activation in PBMCs, intracellular cytokine staining and CD154 by flow cytometry; format: cell-based, human; conditions: 5 to 50 ug/ml, 5-day incubation

Substance	Binds to 0401 [1]	Binds to 0101 [2]	Binds to 0405 [3]	Binds to 0404 [4]	Binds to 0408 [5]	Binds to 1001 [6]	Binds MHC in vitro ([1]; HLA tested *0401)	double staining for CD154 and at least one cytokine (IFNgamma, IL-17A, TNF alpha), activation of T-cells ([7]; HLA DRB1-0401 patients)	Activation of T-cells ([7]; HLA tested *0401, yes = all patients positive for at least one cytokine)
a-enolase 13: human alpha-enolase peptide, not citrullinated (GVSKAVEHINKTIAP; listed as Homo sapiens)	no	*0101	no	*0404	no	no			
a-enolase 45: human alpha-enolase peptide, not citrullinated (KEGLELLKTAIGKAG; listed as Homo sapiens)	*0401	*0101	*0405	*0404	*0408	no			
a-enolase 57: human alpha-enolase peptide, not citrullinated (KSFIKDYPVVSIEDP; listed as Homo sapiens)	*0401	*0101	*0405	*0404	*0408	*1001			
a-enolase 12: human alpha-enolase peptide, not citrullinated (RYMGKGVSKAVEHIN; listed as Homo sapiens)	no	*0101	*0405	no	*0408	*1001			
a-enolase 34: human alpha-enolase peptide, not citrullinated (QEFMILPVGAANFRE; listed as Homo sapiens)	*0401	*0101	*0405	*0404	no	no			
a-enolase 81: human alpha-enolase peptide, not citrullinated (SERLAKYNQLLRIEE; listed as Homo sapiens)	no	*0101	no	*0404	no	no			
a-enolase 26: human alpha-enolase peptide, not citrullinated (KGVPLYRHIADLAGN; listed as Homo sapiens)	*0401	*0101	*0405	*0404	*0408	no			
a-enolase 38: human alpha-enolase peptide, not citrullinated (AEVYHNLKNVIKEKY; listed as Homo sapiens)	*0401	*0101	*0405	no	*0408	no			
a-enolase 69: human alpha-enolase peptide, not citrullinated (LLKVNQIGSVTESLQ; listed as Homo sapiens)	no	no	*0405	no	no	no			

Continued, in another order:

Binds to 0401 [1]	Binds to 0101 [2]	Binds to 0405 [3]	Binds to 0404 [4]	Binds to 0408 [5]	Binds to 1001 [6]	Binds MHC in vitro ([1]; HLA tested *0401)	Substance	double staining for CD154 and at least one cytokine (IFNgamma, IL-17A, TNF alpha), activation of T-cells ([7]; HLA DRB1-0401 patients)	Activation of T-cells ([7]; HLA tested *0401, yes = all patients positive for at least one cytokine)
*0401	*0101	*0405	*0404	no	no	yes	a-enolase 313: citrullinated human alpha-enolase peptide (K[Cit]IAKAVNEKSCNCL; cysteine pairing not given here; listed as Homo sapiens)	double stained positive for both CD154 and at least one cytokine	yes
no	*0101	*0405	no	*0408	no		a-enolase 80: human alpha-enolase peptide, not citrullinated (GAPCRSERLAKYNQL; listed as Homo sapiens)		
*0401	no	*0405	no	*0408	no		a-enolase 299: citrullinated human alpha-enolase peptide (KGVPLY[Cit]HIADLAGN; listed as Homo sapiens)		
no	*0101	*0405	*0404	no	*1001		a-enolase 1: human alpha-enolase peptide, not citrullinated (MSILKIHAREIFDSR; listed as Homo sapiens)		
no	*0101	*0405	no	no	no		a-enolase 36: human alpha-enolase peptide, not citrullinated (ANFREAMRIGAEVYH; listed as Homo sapiens)		
no	*0101	no	*0404	*0408	no		a-enolase 14: human alpha-enolase peptide, not citrullinated (VEHINKTIAPALVSK; listed as Homo sapiens)		
